{"source": "paper PMC13127578", "about": "“Mavacamten inhibits myosin activity by stabilizing the myosin interacting-heads motif and stalling motor force generation” (Science Advances, 2026)", "binders": {"B1": {"name": "human MYL2 (vLC2), ventricular regulatory light chain (natural protein, UniProt P10916 1-166, looked up)", "chain": "MAPKKAKKRAGGANSNVFSMFEQTQIQEFKEAFTIMDQNRDGFIDKNDLRDTFAALGRVNVKNEEIDEMIKEAPGPINFTVFLTMFGEKLKGADPEETILNAFKVFDPEGKGVLKADYVREMLTTQAERFSKEEVDQMFAAFPPDVTGNLDYKNLVHIITHGEEKD", "notes": "myosin regulatory light chain MYL2 (vLC2), human; also called RLC"}, "B2": {"name": "human MYL3 (vLC1), ventricular essential light chain (natural protein)", "chain": "not shown", "notes": "myosin essential light chain MYL3 (vLC1), human; also called ELC"}, "B3": {"name": "human beta-cardiac heavy meromyosin (β-cHMM) heavy chain, MYH7 residues 1 to 1137 (domain or fragment, UniProt P12883 1-1137, looked up)", "chain": "MGDSEMAVFGAAAPYLRKSEKERLEAQTRPFDLKKDVFVPDDKQEFVKAKIVSREGGKVTAETEYGKTVTVKEDQVMQQNPPKFDKIEDMAMLTFLHEPAVLYNLKDRYGSWMIYTYSGLFCVTVNPYKWLPVYTPEVVAAYRGKKRSEAPPHIFSISDNAYQYMLTDRENQSILITGESGAGKTVNTKRVIQYFAVIAAIGDRSKKDQSPGKGTLEDQIIQANPALEAFGNAKTVRNDNSSRFGKFIRIHFGATGKLASADIETYLLEKSRVIFQLKAERDYHIFYQILSNKKPELLDMLLITNNPYDYAFISQGETTVASIDDAEELMATDNAFDVLGFTSEEKNSMYKLTGAIMHFGNMKFKLKQREEQAEPDGTEEADKSAYLMGLNSADLLKGLCHPRVKVGNEYVTKGQNVQQVIYATGALAKAVYERMFNWMVTRINATLETKQPRQYFIGVLDIAGFEIFDFNSFEQLCINFTNEKLQQFFNHHMFVLEQEEYKKEGIEWTFIDFGMDLQACIDLIEKPMGIMSILEEECMFPKATDMTFKAKLFDNHLGKSANFQKPRNIKGKPEAHFSLIHYAGIVDYNIIGWLQKNKDPLNETVVGLYQKSSLKLLSTLFANYAGADAPIEKGKGKAKKGSSFQTVSALHRENLNKLMTNLRSTHPHFVRCIIPNETKSPGVMDNPLVMHQLRCNGVLEGIRICRKGFPNRILYGDFRQRYRILNPAAIPEGQFIDSRKGAEKLLSSLDIDHNQYKFGHTKVFFKAGLLGLLEEMRDERLSRIITRIQAQSRGVLARMEYKKLLERRDSLLVIQWNIRAFMGVKNWPWMKLYFKIKPLLKSAEREKEMASMKEEFTRLKEALEKSEARRKELEEKMVSLLQEKNDLQLQVQAEQDNLADAEERCDQLIKNKIQLEAKVKEMNERLEDEEEMNAELTAKKRKLEDECSELKRDIDDLELTLAKVEKEKHATENKVKNLTEEMAGLDEIIAKLTKEKKALQEAHQQALDDLQAEEDKVNTLTKAKVKLEQQVDDLEGSLEQEKKVRMDLERAKRKLEGDLKLTQESIMDLENDKQQLDERLKKKDFELNALNARIEDEQALGSQLQKKLKELQARIEELEEELEAERTARAKVEKLRS", "notes": "FLAG tag at 1138 to 1146; Two heavy chains form the two-headed cHMM; in the sample each carries a mouse ELC and RLC; For cryo-EM and negative stain the sample was cross-linked with BS3 in the presence of ATP; also called βCM; beta-cardiac myosin"}}, "key": {"[1]": {"target": "T1, single-headed human beta-cardiac myosin S1 (cS1), MYH7 residues 1 to 834 fused to GFP and FLAG (human, UniProt P12883 1-834)", "T1 construct": "beta-cardiac myosin heavy chain (MYH7), human, residues 1 to 834, followed by a short linker, a GFP domain and a FLAG tag; also called cS1gfp", "test": "cross-linking; quantitative XL-MS with DSBU (600 μM, 20 min, 25°C) on 4 μM purified cS1 with bound light chains, 10 mM Mops pH 7.3, 50 mM KCl, 1 mM ATP, with 50 μM mavacamten or DMSO", "conditions": "both partners purified"}, "[2]": {"target": "the molecule itself", "test": "cryo-EM structure; IHM_(mava): 2 μM cHMM with 1 mM ATP, 50 μM mavacamten (5% DMSO), cross-linked with 1 mM BS3, 50 mM KCl, 10 mM Mops pH 7; Lacey continuous carbon grid; ADP.Pi state; 3.7 Å"}}}
{"binder": "B1", "values": [{"measurement": "binding result", "setting": "[1]", "result": "binds"}]}
{"binder": "B2", "values": [{"measurement": "binding result", "setting": "[1]", "result": "binds"}]}
{"binder": "B3", "values": [{"measurement": "binding result", "setting": "[2]", "result": "binds"}]}
